In IntAct's records for PubMed 17548836:

B1: Bone morphogenetic protein 1 (Homo sapiens), P13497 (parent)
chain: MPGVARLPLLLGLLLLPRPGRPLDLADYTYDLAEEDDSEPLNYKDPCKAAAFLGDIALDEEDLRAFQVQQAVDLRRHTARKSSIKAAVPGNTSTPSCQSTNGQPQRGACGRWRGRSRSRRAATSRPERVWPDGVIPFVIGGNFTGSQRAVFRQAMRHWEKHTCVTFLERTDEDSYIVFTYRPCGCCSYVGRRGGGPQAISIGKNCDKFGIVVHELGHVVGFWHEHTRPDRDRHVSIVRENIQPGQEYNFLKMEPQEVESLGETYDFDSIMHYARNTFSRGIFLDTIVPKYEVNGVKPPIGQRTRLSKGDIAQARKLYKCPACGETLQDSTGNFSSPEYPNGYSAHMHCVWRISVTPGEKIILNFTSLDLYRSRLCWYDYVEVRDGFWRKAPLRGRFCGSKLPEPIVSTDSRLWVEFRSSSNWVGKGFFAVYEAICGGDVKKDYGHIQSPNYPDDYRPSKVCIWRIQVSEGFHVGLTFQSFEIERHDSCAYDYLEVRDGHSESSTLIGRYCGYEKPDDIKSTSSRLWLKFVSDGSINKAGFAVNFFKEVDECSRPNRGGCEQRCLNTLGSYKCSCDPGYELAPDKRRCEAACGGFLTKLNGSITSPGWPKEYPPNKNCIWQLVAPTQYRISLQFDFFETEGNDVCKYDFVEVRSGLTADSKLHGKFCGSEKPEVITSQYNNMRVEFKSDNTVSKKGFKAHFFSDKDECSKDNGGCQQDCVNTFGSYECQCRSGFVLHDNKHDCKEAGCDHKVTSTSGTITSPNWPDKYPSKKECTWAISSTPGHRVKLTFMEMDIESQPECAYDHLEVFDGRDAKAPVLGRFCGSKKPEPVLATGSRMFLRFYSDNSVQRKGFQASHATECGGQVRADVKTKDLYSHAQFGDNNYPGGVDCEWVIVAEEGYGVELVFQTFEVEEETDCGYDYMELFDGYDSTAPRLGRYCGSGPPEEVYSAGDSVLVKFHSDDTITKKGFHLRYTSTKFQDTLHSRK
B2: Bone morphogenetic protein 1 (Homo sapiens), P13497 (parent)
chain: B1 chain
partner: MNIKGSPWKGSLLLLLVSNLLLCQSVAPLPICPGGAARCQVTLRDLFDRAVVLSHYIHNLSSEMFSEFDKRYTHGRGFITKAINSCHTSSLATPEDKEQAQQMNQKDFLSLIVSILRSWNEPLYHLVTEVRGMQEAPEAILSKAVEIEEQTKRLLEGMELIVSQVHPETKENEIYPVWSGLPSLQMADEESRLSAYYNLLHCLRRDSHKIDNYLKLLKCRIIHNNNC

Variants of: B1
Conditions: with soma_human GH1, P01241
Chain of soma_human GH1, P01241 (P01241 whole entry): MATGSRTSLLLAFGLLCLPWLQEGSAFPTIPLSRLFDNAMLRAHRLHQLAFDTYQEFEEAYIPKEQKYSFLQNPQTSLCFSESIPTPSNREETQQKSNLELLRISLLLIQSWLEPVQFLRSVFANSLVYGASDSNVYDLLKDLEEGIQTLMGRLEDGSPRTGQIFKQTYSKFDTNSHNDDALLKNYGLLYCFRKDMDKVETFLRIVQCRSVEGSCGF

Variant	effect of a mutation on the interaction
E214A	disrupting interaction strength

Variants of: B2
Conditions: with prl_human PRL

Variant	effect of a mutation on the interaction
E214A	disrupting interaction strength
